Assay [1] has as its target mouse TIMP-1 (mouse) (UniProt P12032). Description: BIAcore SPR, immobilised mouse TIMP-1. Background: Surface plasmon resonance follows binding to a sensor surface in real time, without labels.
For assay [2] the target is unchanged. Description: BIAcore SPR.

Sequence of mouse TIMP-1 (mouse) (P12032 25-205 limits assumed): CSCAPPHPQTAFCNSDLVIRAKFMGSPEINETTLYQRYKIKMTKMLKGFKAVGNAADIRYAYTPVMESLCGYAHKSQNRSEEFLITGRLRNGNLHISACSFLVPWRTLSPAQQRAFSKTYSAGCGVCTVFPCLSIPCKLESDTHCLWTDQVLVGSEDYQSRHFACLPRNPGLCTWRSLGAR

B1: MS-BW-17-1 Fab (Fab, V domains shown)
VH: QVQLVQSGAEVKKPGESLKISCKGSGYSFTSYWIGWVRQMPGKGLEWMGIIYPGDSDTRYSPSFQGQVTISADKSISTAYLQWSSLKASDTAMYYCARLTNYFDSIYYDHWGQGTLVTVSS
VL: DIALTQPASVSGSPGQSITISCTGTSSDVGGYNYVSWYQQHPGKAPKLMIYDVSNRPSGVSNRFSGSKSGNTASLTISGLQAEDEADYYCQAFDVAPNGKVFGGGTKLTVLG
As to B1, in the assay with mouse TIMP-1 (mouse) [1], the Kd came out at 0.18 µM. In the assay with mouse TIMP-1 (mouse) [2], this molecule displayed a fold weaker than the affinity to rat TIMP-1 of 225 fold.

One may read the Kd as the concentration at which binding is half-saturated.

These data come from patent US20040105862A1.
